Measurements as given in US20230340160A1 (published 2023).

What was measured:
[1] = target: T1, human CD3 expressed on Jurkat cells (human, UniProt P07766 23-207); experiment: flow cytometry on Jurkat cells, 50 nM
T1 construct: CD3 complex on Jurkat cells (ATCC TIB-152); also called huCD3
Description: (§1) Binding of the different bispecific constructs to CD3 on Jurkat cells (ATCC #TIB-152), and the respective tumor antigen on target cells, was determined by FACS. Briefly, cells were harvested, counted and checked for viability. 0.15 - 0.2 million cells per well (in PBS containing 0.1% BSA; 90 µl) were plated in a round-bottom 96-well plate and incubated with the indicated concentration of the bispecific constructs and corresponding IgG controls (10 µl) for 30 min at 4° C. For a better comparison, all constructs and IgG controls were normalized to same molarity. After the incubation, cells were centrifuged (5 min, 350 × g), washed with 150 µl PBS containing 0.1% BSA, resuspended and incubated for further 30 min at 4° C. with 12 µl/well of a FITC-or PE-conjugated secondary antibody. Bound constructs were detected using a FACSCantoII (Software FACS Diva). The “(scFv)₂” molecule was detected using a FITC-conjugated anti-His antibody (Lucerna, #RHIS-45F-Z). For all other molecules, a FITC- or PE-conjugated AffiniPure F(ab′)2 Fragment goat anti-human IgG Fcγ Fragment Specific (Jackson Immuno Research Lab # 109-096-098 / working solution 1:20, or #109-116-170 / working solution 1:80, respectively) was used. Cells were washed by addition of 120 µl/well PBS containing 0.1% BSA and centrifugation at 350 × g for 5 min. A second washing step was performed with 150 µl/well PBS containing 0.1% BSA. Unless otherwise indicated, cells were fixed with 100 µl/well fixation buffer (BD #554655) for 15 min at 4° C. in the dark, centrifuged for 6 min at 400 × g and kept in 200 µl/well PBS containing 0.1% BSA until the samples were measured with FACS CantoII. EC50 values were calculated using the GraphPad Prism software.
(§2) In a first experiment, different bispecific constructs targeting human MCSP and human CD3 were analyzed by flow cytometry for binding to human CD3 expressed on Jurkat, human T cell leukaemia cells, or to human MCSP on Colo-38 human melanoma cells.

[2] = target: T2, human MCSP expressed on tumor cells (human, UniProt Q6UVK1 30-2322); experiment: flow cytometry on Colo-38 cells, 50 nM
T2 construct: whole, on cells; On Colo-38, WM266-4, MV-3 or MDA-MB-435 cells, as named in each row; also called huMCSP; Melanoma-associated Chondroitin Sulfate Proteoglycan
T2 sequence (Q6UVK1 30-2322): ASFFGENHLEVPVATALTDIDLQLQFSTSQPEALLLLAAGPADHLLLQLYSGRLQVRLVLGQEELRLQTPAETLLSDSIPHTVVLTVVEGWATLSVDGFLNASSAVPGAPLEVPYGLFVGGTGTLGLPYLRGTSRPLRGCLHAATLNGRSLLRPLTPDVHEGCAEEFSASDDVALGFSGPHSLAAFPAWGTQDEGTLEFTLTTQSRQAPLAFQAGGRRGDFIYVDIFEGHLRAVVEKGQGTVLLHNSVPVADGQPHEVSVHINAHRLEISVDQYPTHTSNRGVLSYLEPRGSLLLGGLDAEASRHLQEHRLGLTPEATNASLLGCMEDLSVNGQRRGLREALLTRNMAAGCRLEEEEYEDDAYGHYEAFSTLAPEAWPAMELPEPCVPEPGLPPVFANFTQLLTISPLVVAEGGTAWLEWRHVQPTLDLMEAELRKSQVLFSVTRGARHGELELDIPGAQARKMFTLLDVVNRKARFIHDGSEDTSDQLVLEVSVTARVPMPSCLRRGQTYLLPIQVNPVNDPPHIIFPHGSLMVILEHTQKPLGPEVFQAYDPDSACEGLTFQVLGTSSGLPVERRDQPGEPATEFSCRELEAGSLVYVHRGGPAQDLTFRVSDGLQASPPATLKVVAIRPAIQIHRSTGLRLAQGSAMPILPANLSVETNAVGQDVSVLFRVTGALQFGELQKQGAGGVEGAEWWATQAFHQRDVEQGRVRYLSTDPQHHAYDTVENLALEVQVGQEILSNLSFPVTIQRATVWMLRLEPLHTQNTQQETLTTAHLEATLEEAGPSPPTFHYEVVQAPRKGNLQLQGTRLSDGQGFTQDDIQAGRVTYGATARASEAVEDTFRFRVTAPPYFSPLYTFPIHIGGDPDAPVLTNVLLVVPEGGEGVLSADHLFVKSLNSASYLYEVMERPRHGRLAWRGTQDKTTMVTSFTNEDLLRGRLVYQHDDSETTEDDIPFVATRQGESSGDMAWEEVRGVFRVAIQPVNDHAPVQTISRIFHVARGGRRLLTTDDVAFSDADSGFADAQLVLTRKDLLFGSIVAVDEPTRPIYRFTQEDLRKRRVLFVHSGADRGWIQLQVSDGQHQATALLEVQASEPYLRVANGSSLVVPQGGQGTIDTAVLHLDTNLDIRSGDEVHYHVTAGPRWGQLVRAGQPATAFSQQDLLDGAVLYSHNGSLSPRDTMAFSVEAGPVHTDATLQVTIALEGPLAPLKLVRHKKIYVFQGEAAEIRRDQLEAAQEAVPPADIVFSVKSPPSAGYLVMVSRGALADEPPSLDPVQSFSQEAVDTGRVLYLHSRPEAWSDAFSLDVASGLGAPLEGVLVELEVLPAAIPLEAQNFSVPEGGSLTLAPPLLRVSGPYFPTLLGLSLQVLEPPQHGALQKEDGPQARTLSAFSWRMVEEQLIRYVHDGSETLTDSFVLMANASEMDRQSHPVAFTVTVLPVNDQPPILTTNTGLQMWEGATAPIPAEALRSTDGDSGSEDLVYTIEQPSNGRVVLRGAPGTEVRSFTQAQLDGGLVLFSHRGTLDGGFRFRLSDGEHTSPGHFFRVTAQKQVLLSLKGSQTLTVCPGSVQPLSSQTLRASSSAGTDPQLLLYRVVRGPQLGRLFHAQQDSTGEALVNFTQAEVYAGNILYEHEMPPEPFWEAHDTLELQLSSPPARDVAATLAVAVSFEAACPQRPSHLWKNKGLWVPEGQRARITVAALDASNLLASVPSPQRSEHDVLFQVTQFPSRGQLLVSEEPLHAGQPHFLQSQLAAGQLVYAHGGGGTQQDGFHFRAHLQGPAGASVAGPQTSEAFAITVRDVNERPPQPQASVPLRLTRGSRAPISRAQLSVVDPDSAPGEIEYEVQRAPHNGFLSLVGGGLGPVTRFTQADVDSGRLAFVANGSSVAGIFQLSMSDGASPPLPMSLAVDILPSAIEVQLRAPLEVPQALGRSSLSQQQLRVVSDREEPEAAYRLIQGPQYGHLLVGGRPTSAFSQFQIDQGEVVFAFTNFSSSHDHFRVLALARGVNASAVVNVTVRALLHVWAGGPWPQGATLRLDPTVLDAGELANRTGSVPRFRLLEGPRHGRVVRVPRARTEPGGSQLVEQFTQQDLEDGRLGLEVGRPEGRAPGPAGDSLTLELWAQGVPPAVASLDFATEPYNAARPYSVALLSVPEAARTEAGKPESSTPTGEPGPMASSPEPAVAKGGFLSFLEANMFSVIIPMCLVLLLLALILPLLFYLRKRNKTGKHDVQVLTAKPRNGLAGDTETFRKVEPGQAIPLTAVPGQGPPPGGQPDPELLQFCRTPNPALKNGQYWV
Description: as §1, §2

[3] = target: T2, human MCSP expressed on tumor cells; experiment: cell-based or functional assay
[4] = target: T2, human MCSP expressed on tumor cells; experiment: cell-based or functional assay; remark: listed apart in the source
[5] = target: T1, human CD3 expressed on Jurkat cells; experiment: flow cytometry on Jurkat cells
Description: as §1
As a control, the equivalent maximum concentration of the corresponding IgGs and the background staining due to the labeled 2ndary antibody (goat anti-human FITC-conjugated AffiniPure F(ab′)2 Fragment, Fcγ Fragment-specific, Jackson Immuno Research Lab # 109-096-098) were assessed as well.

[6] = target: T2, human MCSP expressed on tumor cells; experiment: flow cytometry on WM266-4 cells
Description: as §1
In a final experiment, binding of the “2+1 IgG Crossfab” (SEQ ID NOs 5, 23, 215, 217) and the “2+1 IgG Crossfab, inverted” (SEQ ID NOs 5, 23, 215, 219) constructs to human CD3, expressed by Jurkat cells, and to human MCSP, expressed by WM266-4 tumor cells was determined. As depicted in FIG. 58A and FIG. 58B the binding to human CD3 was reduced for the “2+1 IgG Crossfab, inverted” compared to the other construct, but the binding to human MCSP was comparably good.

T1 sequence (P07766 23-207 limits assumed): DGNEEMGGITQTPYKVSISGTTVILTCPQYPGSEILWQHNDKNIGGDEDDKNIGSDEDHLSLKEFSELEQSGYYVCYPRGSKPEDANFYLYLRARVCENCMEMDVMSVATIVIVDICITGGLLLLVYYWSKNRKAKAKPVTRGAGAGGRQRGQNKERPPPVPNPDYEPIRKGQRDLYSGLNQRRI

B1: “1+1 IgG scFab, one armed inverted” (anti-MCSP/anti-huCD3) (bispecific antibody)
heavy 1: DIVLTQSPSSLSASLGDRVTISCSASQGIRNYLNWYQQRPDGTVKLLIYYTSSLHSGVPSRFSGSGSGTDYSLTISNLEPEDIATYYCQQYSKLPWTFGGGTKLEIKRTVAAPSVFIFPPSDEQLKSGTASVVCLLNNFYPREAKVQWKVDNALQSGNSQESVTEQDSKDSTYSLSSTLTLSKADYEKHKVYACEVTHQGLSSPVTKSFNRGECSGGGSGGGSEGGGSEGGGSEGGGSEGGGSGGGSGEVQLQESGPGLVKPSQSLSLTCSVTGYSITSGYYWNWIRQFPGNKLEWMGYITYDGSNNYNPSLKNRISITRDTSKNQFFLKLNSVTTEDTATYYCADFDYWGQGTTLTVSSASTKGPSVFPLAPSSKSTSGGTAALGCLVKDYFPEPVTVSWNSGALTSGVHTFPAVLQSSGLYSLSSVVTVPSSSLGTQTYICNVNHKPSNTKVDKKVEPKSCDGGGGSGGGGSGAQDKTHTCPPCPAPEAAGGPSVFLFPPKPKDTLMISRTPEVTCVVVDVSHEDPEVKFNWYVDGVEVHNAKTKPREEQYNSTYRVVSVLTVLHQDWLNGKEYKCKVSNKALPAPIEKTISKAKGQPREPQVCTLPPSRDELTKNQVSLSCAVKGFYPSDIAVEWESNGQPENNYKTTPPVLDSDGSFFLVSKLTVDKSRWQQGNVFSCSVMHEALHNHYTQKSLSLSPGK
heavy 2: not shown
light: not shown
B1: binds [1]; binds [2].

B2: “2+1 IgG Crossfab” (anti-MCSP/anti-huCD3); VH/VL exchange (LC007/V9) (bispecific antibody)
heavy 1: DIQMTQSPSSLSASVGDRVTITCRASQDIRNYLNWYQQKPGKAPKLLIYYTSRLESGVPSRFSGSGSGTDYTLTISSLQPEDFATYYCQQGNTLPWTFGQGTKVEIKSSASTKGPSVFPLAPSSKSTSGGTAALGCLVKDYFPEPVTVSWNSGALTSGVHTFPAVLQSSGLYSLSSVVTVPSSSLGTQTYICNVNHKPSNTKVDKKVEPKSCGGGGSGGGGSEVQLQESGPGLVKPSQSLSLTCSVTGYSITSGYYWNWIRQFPGNKLEWMGYITYDGSNNYNPSLKNRISITRDTSKNQFFLKLNSVTTEDTATYYCADFDYWGQGTTLTVSSASTKGPSVFPLAPSSKSTSGGTAALGCLVKDYFPEPVTVSWNSGALTSGVHTFPAVLQSSGLYSLSSVVTVPSSSLGTQTYICNVNHKPSNTKVDKKVEPKSCDKTHTCPPCPAPEAAGGPSVFLFPPKPKDTLMISRTPEVTCVVVDVSHEDPEVKFNWYVDGVEVHNAKTKPREEQYNSTYRVVSVLTVLHQDWLNGKEYKCKVSNKALGAPIEKTISKAKGQPREPQVCTLPPSRDELTKNQVSLSCAVKGFYPSDIAVEWESNGQPENNYKTTPPVLDSDGSFFLVSKLTVDKSRWQQGNVFSCSVMHEALHNHYTQKSLSLSPGK
heavy 2: not shown
light 1: DIVLTQSPSSLSASLGDRVTISCSASQGIRNYLNWYQQRPDGTVKLLIYYTSSLHSGVPSRFSGSGSGTDYSLTISNLEPEDIATYYCQQYSKLPWTFGGGTKLEIKRTVAAPSVFIFPPSDEQLKSGTASVVCLLNNFYPREAKVQWKVDNALQSGNSQESVTEQDSKDSTYSLSSTLTLSKADYEKHKVYACEVTHQGLSSPVTKSFNRGEC
light 2: EVQLVESGGGLVQPGGSLRLSCAASGYSFTGYTMNWVRQAPGKGLEWVALINPYKGVSTYNQKFKDRFTISVDKSKNTAYLQMNSLRAEDTAVYYCARSGYYGDSDWYFDVWGQGTLVTVSSASVAAPSVFIFPPSDEQLKSGTASVVCLLNNFYPREAKVQWKVDNALQSGNSQESVTEQDSKDSTYSLSSTLTLSKADYEKHKVYACEVTHQGLSSPVTKSFNRGEC
notes: also called 2+1 IgG Crossfab (V9)
With B2 the “EC50 of killing (LDH release) of MV-3 cells, human PBMCs, E:T 10:1, 21 h” value [3] was 0.0092 nM, the “EC50 of killing (LDH release) of WM266-4 cells, human PBMCs, E:T 10:1, 21 h” value [3] was 0.0331 nM and the “EC50 [pM] of killing (LDH release) of MV-3 cells, human PBMCs, E:T 10:1, about 24 h” value [4] was 10 pM. For the same binder, the “EC50 [pM] of killing (LDH release) of WM266-4 cells, human PBMCs, E:T 10:1, about 24 h” value [4] was 12.4 pM, the EC50 [5] was 1.66 nM and the EC50 [6] was 0.95 nM.

B3: “1+1 IgG scFab, one armed” (anti-MCSP/anti-huCD3) (bispecific antibody)
heavy 1: not shown
heavy 2: not shown
light: B2 light 1
B3: binds [1]; binds [2].

B4: CD3/MCSP “2+1 IgG Crossfab, inverted”; CL/CH1 exchange (LC007/V9) (bispecific antibody)
heavy 1: not shown
heavy 2: EVQLQESGPGLVKPSQSLSLTCSVTGYSITSGYYWNWIRQFPGNKLEWMGYITYDGSNNYNPSLKNRISITRDTSKNQFFLKLNSVTTEDTATYYCADFDYWGQGTTLTVSSASTKGPSVFPLAPSSKSTSGGTAALGCLVKDYFPEPVTVSWNSGALTSGVHTFPAVLQSSGLYSLSSVVTVPSSSLGTQTYICNVNHKPSNTKVDKKVEPKSCDKTHTCPPCPAPEAAGGPSVFLFPPKPKDTLMISRTPEVTCVVVDVSHEDPEVKFNWYVDGVEVHNAKTKPREEQYNSTYRVVSVLTVLHQDWLNGKEYKCKVSNKALGAPIEKTISKAKGQPREPQVCTLPPSRDELTKNQVSLSCAVKGFYPSDIAVEWESNGQPENNYKTTPPVLDSDGSFFLVSKLTVDKSRWQQGNVFSCSVMHEALHNHYTQKSLSLSPGK
light 1: B2 light 1
light 2: DIQMTQSPSSLSASVGDRVTITCRASQDIRNYLNWYQQKPGKAPKLLIYYTSRLESGVPSRFSGSGSGTDYTLTISSLQPEDFATYYCQQGNTLPWTFGQGTKVEIKSSASTKGPSVFPLAPSSKSTSGGTAALGCLVKDYFPEPVTVSWNSGALTSGVHTFPAVLQSSGLYSLSSVVTVPSSSLGTQTYICNVNHKPSNTKVDKKVEPKSC
notes: also called 2+1 IgG Crossfab, inverted (V9)
With B4 the “EC50 [pM] of killing (LDH release) of MV-3 cells, human PBMCs, E:T 10:1, about 24 h” value [4] was 4.1 pM, the “EC50 [pM] of killing (LDH release) of WM266-4 cells, human PBMCs, E:T 10:1, about 24 h” value [4] was 3.7 pM and the EC50 [5] was 6.1 nM. For the same binder, the EC50 [6] was 0.57 nM.

B5: “2+1 IgG Crossfab”; CL/CH1 exchange (LC007/anti-CD3) (bispecific antibody)
heavy 1: not shown
heavy 2: B4 heavy 2
light 1: B2 light 1
light 2: QAVVTQESALTTSPGETVTLTCRSSTGAVTTSNYANWVQEKPDHLFTGLIGGTNKRAPGVPARFSGSLIGDKAALTITGAQTEDEAIYFCALWYSNLWVFGGGTKLTVLSSASTKGPSVFPLAPSSKSTSGGTAALGCLVKDYFPEPVTVSWNSGALTSGVHTFPAVLQSSGLYSLSSVVTVPSSSLGTQTYICNVNHKPSNTKVDKKVEPKSC
notes: also called 2+1 IgG Crossfab (anti-CD3)
With B5 the “EC50 [pM] of killing (LDH release) of MV-3 cells, human PBMCs, E:T 10:1, about 24 h” value [4] was 11 pM, the “EC50 [pM] of killing (LDH release) of WM266-4 cells, human PBMCs, E:T 10:1, about 24 h” value [4] was 11.3 pM and the EC50 [5] was 10.3 nM. It also gave an EC50 [6] of 3.1 nM.

B6: “2+1 IgG Crossfab, inverted”; CL/CH1 exchange (LC007/anti-CD3) (bispecific antibody)
heavy 1: not shown
heavy 2: B4 heavy 2
light 1: B2 light 1
light 2: B5 light 2
notes: also called 2+1 IgG Crossfab, inverted (anti-CD3)
In the case of B6, the “EC50 [pM] of killing (LDH release) of MV-3 cells, human PBMCs, E:T 10:1, about 24 h” value [4] is reported as 3 pM, the “EC50 [pM] of killing (LDH release) of WM266-4 cells, human PBMCs, E:T 10:1, about 24 h” value [4] is reported as 7.1 pM and the EC50 [5] is reported as 32 nM. The EC50 [6] was 3.4 nM.
